# Results from IntAct's records for PubMed 24591568.
# B1: Rab11 family-interacting protein 5 (Homo sapiens), Q9BXF6 (parent)
# chain: MALVRGAEPAAGPSRWLPTHVQVTVLRARGLRGKSSGAGSTSDAYTVIQVGREKYSTSVVEKTHGCPEWREECSFELPPGALDGLLRAQEADAGPAPWAASSAAACELVLTTMHRSLIGVDKFLGQATVALDEVFGAGRAQHTQWYKLHSKPGKKEKERGEIEVTIQFTRNNLSASMFDLSMKDKPRSPFSKIRDKMKGKKKYDLESASAILPSSAIEDPDLGSLGKMGKAKGFFLRNKLRKSSLTQSNTSLGSDSTLSSASGSLAYQGPGAELLTRSPSRSSWLSTEGGRDSAQSPKLFTHKRTYSDEANQMRVAPPRALLDLQGHLDAASRSSLCVNGSHIYNEEPQGPVRHRSSISGSLPSSGSLQAVSSRFSEEGPRSTDDTWPRGSRSNSSSEAVLGQEELSAQAKVLAPGASHPGEEEGARLPEGKPVQVATPIVASSEAVAEKEGARKEERKPRMGLFHHHHQGLSRSELGRRSSLGEKGGPILGASPHHSSSGEEKAKSSWFGLREAKDPTQKPSPHPVKPLSAAPVEGSPDRKQSRSSLSIALSSGLEKLKTVTSGSIQPVTQAPQAGQMVDTKRLKDSAVLDQSAKYYHLTHDELISLLLQRERELSQRDEHVQELESYIDRLLVRIMETSPTLLQIPPGPPK
# partner: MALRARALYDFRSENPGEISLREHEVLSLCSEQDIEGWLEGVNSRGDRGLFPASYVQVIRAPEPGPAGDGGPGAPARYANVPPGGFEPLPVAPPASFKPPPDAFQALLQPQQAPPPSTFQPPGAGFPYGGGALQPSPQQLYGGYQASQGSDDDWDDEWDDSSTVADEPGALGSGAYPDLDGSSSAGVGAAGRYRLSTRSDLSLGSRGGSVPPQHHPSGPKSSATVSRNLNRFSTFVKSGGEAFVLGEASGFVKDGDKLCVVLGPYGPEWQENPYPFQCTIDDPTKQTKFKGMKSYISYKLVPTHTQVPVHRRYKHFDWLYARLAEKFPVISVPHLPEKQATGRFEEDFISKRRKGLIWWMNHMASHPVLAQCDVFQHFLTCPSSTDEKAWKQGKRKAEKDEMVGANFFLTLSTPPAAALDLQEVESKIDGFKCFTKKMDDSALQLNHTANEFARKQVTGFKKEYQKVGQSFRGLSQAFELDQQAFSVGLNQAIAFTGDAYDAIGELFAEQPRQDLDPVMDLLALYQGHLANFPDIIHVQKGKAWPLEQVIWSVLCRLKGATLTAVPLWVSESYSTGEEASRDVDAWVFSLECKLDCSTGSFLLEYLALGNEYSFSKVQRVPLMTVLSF
# B2: Rab11 family-interacting protein 5 (Homo sapiens), Q9BXF6 (parent)
# chain: B1 chain
# Variants of: B1
# Conditions: with snx18_human SNX18, Q96RF0
row,Variant,effect of a mutation on the interaction
1,T276D,decreasing interaction

# Variants of: B1
# Conditions: with snx18_human SNX18, Q96RF0
# Remark: another data set of the same source
row,Variant,effect of a mutation on the interaction
1,T276A,increasing interaction

# Variants of: B2
# Conditions: with kif3a_human KIF3A
row,Variant,effect of a mutation on the interaction
1,T276A,increasing interaction

# Variants of: B2
# Conditions: with kif3a_human KIF3A
# Remark: another data set of the same source
row,Variant,effect of a mutation on the interaction
1,T276D,increasing interaction
